How the values were obtained:
human C1s (human) [1] = target: human C1s (human)
human C1s (human) [2] = target: human C1s (human); remark: listed apart in the source

Chain of recombinant human C1 esterase inhibitor (rhC1INH) from Chinese hamster ovary (CHO) cells (P05155 23-500): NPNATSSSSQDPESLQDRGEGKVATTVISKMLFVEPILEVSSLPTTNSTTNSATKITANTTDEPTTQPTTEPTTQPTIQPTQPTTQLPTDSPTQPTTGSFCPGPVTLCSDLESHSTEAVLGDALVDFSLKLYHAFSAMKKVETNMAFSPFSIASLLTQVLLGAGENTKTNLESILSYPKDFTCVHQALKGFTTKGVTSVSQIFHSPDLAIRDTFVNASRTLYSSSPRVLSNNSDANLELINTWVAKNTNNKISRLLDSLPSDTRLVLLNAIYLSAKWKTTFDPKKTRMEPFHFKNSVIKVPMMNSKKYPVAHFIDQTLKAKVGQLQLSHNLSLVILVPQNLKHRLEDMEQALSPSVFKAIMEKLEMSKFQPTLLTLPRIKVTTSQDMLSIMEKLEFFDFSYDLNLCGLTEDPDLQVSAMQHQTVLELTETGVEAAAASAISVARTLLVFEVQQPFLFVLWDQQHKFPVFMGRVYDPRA

IC50 of the inhibition of human serum complement (lysis of chicken erythrocytes), rhC1INH 0.0099 to 20.25 IU/mL; printed as activity against human C1-esterase in the blood serum (human C1s (human) [1]): 1.85 IU/mL
Biological Activity, U/mL: inhibition of the C1s subunit, chromogenic method (TECHNOCHROM C1-INH Kit) (human C1s (human) [2]): 175 U/mL
Specific Activity, U/mg: inhibition of the C1s subunit, chromogenic method (TECHNOCHROM C1-INH Kit) (human C1s (human) [2]): 9.5 U/mg
Substance: recombinant human C1 esterase inhibitor (rhC1INH) from Chinese hamster ovary (CHO) cells (from UniProt P05155 23-500) (natural protein)

— PMC8621594
